Consider 15 sequences from the DeepSol protein solubility set.

This data set in a line: soluble on expression in E. coli; label from the status in PepcDB or PDB records.
“MSMQHESPIKRRPSTRIYVGDVPIGDGAPIAVQSMTNTRTTDVAATVAQIKSLEKVGADIVRVSVPTMEAAEAFKLIKQQVSVPLVADIHFDYRIALKVAEYGVDCLRINPGNIGNEARIRSVVDCARDKGIPIRIGVNGGSLEKDLQLKYGEPTPEALVESAMRHVDILDRLNFDQFKVSVKASDVFLAVDSYRLLAKKIDQPLHLGITEAGGARAGSVKSAVGLGMLLAEGIGDTLRISLAADPVEEIKVGFDILKSLRIRSRGINFIACPSCSRQEFDVIGTVNALEQRLEDVLTPMDVSIIGCVVNGPGEAEVSHLGLAGSNKKSAFYEDGVRQKERFDNDDLVAQLEAKIRAKAARLDEKNRIDIKHVEQD”: the “soluble on expression in E. coli” value was “not soluble”. As for “MSNEMYYVQASDPAILEKGECGGAVTALFKYLLDKGIVDGVLALKKGVDVYDAIPTFVTSSEDLLSTAGSLHCAPTMWGGIIKEYLQDAKIAVPVKPCDMRAIVELAKRAQINLDNVYMIGLNCGGTVPPKTAMEMIKLFYEVDPKDVVKEEIDKGKFIIVMKDGSHKEVKMHDLEDNGYGRRVNCQRCDEKIPRKADIAAGNWGVIGEDAGKYTFMEVCTEKGKQLLKDAEKDGYVKTKAPNPKGLEIRAKVESSMLKMGEDYKNKWLEEKYPTIEEWNRQWNKCIKCYGCRDVCPVCFCRECALTADYVDTGSIPPDPIMFQGVRMSHMAFSCVNCGQCEDVCPMEIPVARIFHKIQEKTRKELGYRPGVDDEAPPALGGSCPTQLEHHHHHH”, the entry is “not soluble”; as for “MSNEQPNNPLHGLSLEKIVTRLVEHFGWNGLYERVRVNCFKKDPSIKSSLKFLRKTQWARDKVEALYIETFCLEHHHHHH”, “not soluble”. For the sequence “MSNGNTDPVFDFEDALDQTEMAQLAVDELKKIPEVNTLFAERWLPAPFNLDDLAKLPEGTLGHVYAIEMKARGFDPYFYKKVPVVDDISYLKMLWRSTHDIYHVVAGFDTDGIGEIGLQAFVLAQTPIPISVMLVSFGMVMTSLYQPAKFQDLMAEIARGYSLGSHTPRKLIAQKWDQFWDVPVIEIRECLGMNTVKQRERALEHHHHHH”, the “soluble on expression in E. coli” value was “not soluble”. As for “MSNIAKTSEALQARIRELCGDQLREVGTHPGHWDDSAVRHIVRNPPAAYVVWLGHVPGEHPHVVQARWAVYVVANVLDGQRQNDPGIYQLVEKLSAGLHRCRIAPSGTFDVVLRQAAHLSCYRCKTCGPIRKAAWAWRFTACILKRRNRAITGEMMAQTKITLLAPHKHAGKQYQAGEVLSVDEQSAKFILNMGIGKPAEPVRKNPKLNTEDKQNAK”, the entry is “not soluble”. As for “MSNIERRHTIMAKGSVRKKGKKWYYRFYVEDASGNLVQKECVGTESKSETEKLLRQAMDDYEKKKFVAKAENLTVGQLLDVWAEEELKTSTLSNGTVENYLGTIRNIKKHPLAERKLKNVTSEHLQSFFDLLSFGGVHPDGKEKKGYSKDYIHSFSAVMQQSFRFAVFPKQYITFNPMQYIKLRYQTDEVDLFSDEDMDGNIQPISREDYERLLAYLQKKNPAAILPIQIAYYAGLRIGEACGLAWQDVNLEEQCLTIRRSIRYDGSKRKYIIGPTKRKKVRVVDFGDTLVEIFRNARKEQLKNRMQYGELYHTNYYKEVKEKNRVYYEYYCLDRTEEVPADYKEISFVCLRPDGCLELPTTLGTVCRKVAKTLEGFEGFHFHQLRHTYTSNLLANGAAPKDVQELLGHSDVSTTMNVYAHSTRDAKRKSVRLLDKVVGND”, the “soluble on expression in E. coli” value is listed as “not soluble”. As for “MSNKTKLKDNKELLYQVVLSYKVSHNYPLKAFLIECKNKLNECIDMIWNNIKYTKKDNPKLPKSNEFKRELRNKLLENWNYASHYIDGIIKTSYSILQSWASNYKRGYRTKTKPIAKRLFVRVKTTLIKYDKEKGEIRITIKPRKDYLILNIKNEWFFDKVKNLTIGEIILKEKETFLTFKDNLNYSDKGMIVGVDSNLRSLDLFHPIEGWTRVDLTELHRIKEVYDRKIDFLKKLLKKFPLRAMRKINRLFERRRNRVKDFLHKLTIQLSRLFPDAIFVFEDLNKRRMYKSKYFNRKIDRVNWNGLIEKISYKTIVILVNPAYTSTICPICGSRMESQEGQVVYCSNCLNSFNRQLVGCYNIFKRGLGNIKEIMGGSGVTTTGVEVSFGKLMTPNPNVIYIVDYNGKYFNEIA”, the entry is “soluble”; as for “MSNLYTELKNEWSKHAPNLTHCSRLLDGFKLELVRSNFGTIQTASSSKQKDQLIKSREMLEIAVEHSITIKDYAAFERYMAQLNTYYYDYDKYLESSKHMYKFMGLNLLYMLATNRLADFHIELERLPTALLLHDSFIQPVLALENYYMEGRYNKILQAKKSMPSEIYSNFMDILVNTAREEIASCMEKSYLKMAPKLAAQRLGLRPGSKELFELATKRQWCLDEEGNYDYAGLHTRPMEKVPAKDIATHNLTYAQELEKIVLEHHHHHH”, “not soluble”; as for “MSNQKLSDGGACCSPLAREPLTEDWAGDLARMFKALGDPVRLRLLSLIASHAGGEACVCDISESFDLSQPTISHHLKVLRAAGLLDCERRGTWVYYWVIPSALQQLSAVLLTESGTAVPSPTCAEARA”, “not soluble”. As for “MSNRKFNLDNEVQPEIHFRLLSISASKFENDWTSFPHSHHFTEIFFIKDGTGRMLIENESLPVSSNSLVVIGAQVTHTEFSDPENPLDYYVLGVEGLKLNTDKEPEYIHVPASANSPFIRQCFENILREMHNKQDRYAEICQHYLDILILYFCRKDHVSYEVVDAQNSSRECHKVKRFIEHNYQSMISLDSLAENCSLSKYYLSHRFAELYGKSPIAYLNEVRLASARDLLLTTNHSIEEIAGCIGFSSTSYFSQSFQKNFHESPQQFRKSHRVRT”, the entry is “not soluble”; as for “MSNSFGIKVIACDKIFYNGRCTQLVLPLRDGSKAIQAHHENMVFSVEVGEIKITKEDGSTIVGVTGTGFAQMVNNRATVIVDTCEYPEEIDLRRAEEAKERAEEQLRQKQSIAEYHISKASLARAMARLKEGSGKGTPYGY”, “not soluble”; as for “MSNSQAGPGASVRRVLAVIPARGGSKGVPAKNLAPVGGVPLVVRAVRECLAARLVTDVVVSTDDQAIAAAAREAGAEVVLRPAAIAGDTATSEAAVLHAMDAHEALHGAAVDVVLLVQCTSPFLVREDVDGVAGAVVEDGADTAVTVAPFHGFVWRDGADEPGGADGGHGVNHDKAYRPRRQDRPQDLLETGAAYAMAAPGFRKHRHRFFGRTDLVRTDPARVLEIDDPHDLARARALAPHFDTARPGALPTAADIDAVVLDFDGTQTDDRVLIDTDGREFVSVHRGDGLGIAALRRSGLTMLILSTEVNPVVAARARKLKLPVLHGIDRKDLALKQWCEEQGIAPERVLYVGNDVNDLPCFALVGWPVAVASAHDAVRGAARAVTTVPGGEGAVREIAAWLLGPSLDALGPASETTPTLTQSKLEHHHHHH”, “soluble”.

Turning to “MSPAFRAMDVEPRAKGVLLEPFVHQVGGHSCVLRFNETTLCKPLVPREHQFYETLPAEMRKFTPQYKGVVSVRFEEDEDRNLCLIAYPLKGDHGIVDIVDNSDCEPKSKLLRWTTNKKHHVLETEKTPKDWVRQHRKEEKMKSHKLEEEFEWLKKSEVLYYTVEKKGNISSQLKHYNPWSMKCHQQQLQRMKENAKHRNQYKFILLENLTSRYEVPCVLDLKMGTRQHGDDASEEKAANQIRKCQQSTSAVIGVRVCGMQVYQAGSGQLMFMNKYHGRKLSVQGFKEALFQFFHNGRYLRRELLGPVLKKLTELKAVLERQESYRFYSSSLLVIYDGKERPEVVLDSDAEDLEDLSEESADESAGAYAYKPIGASSVDVRMIDFAHTTCRLYGEDTVVHEGQDAGYIFGLQSLIDIVTEISEESGE”, the “soluble on expression in E. coli” value is reported as “not soluble”. As for “MSPAITRKRFIAGAVCPACSEQDKIQMWEEDGVPHRECVACGYADTLNAQGQSIPKELGTRVNQNAPKPANPKVQSVQFFPNPKLKKKPDA”, the entry is “not soluble”. Regarding “MSPAWPLRPGQKVRVEFYKYPEEALHYFWEAEVVEVRPEGVLTLLPQGGVFHHVGKGRSLVLDHDAYVAFFPGAWYSGGPDVREGRVLEYYWNVQTPALWTGEAFRQYDLELDVKCRADHTCEVFDREEFLAKRPLYPRAWVEEAERAVEAVFRHMREGRWPVLPPGKPLPWMERI”, the “soluble on expression in E. coli” value was “soluble”.
